pIC50, pKd: −log10 of the molar value.
How the values were obtained:
HLA-A*02:01 [1] = assay: IEDB peptide-MHC binding, purified MHC/competitive/fluorescence; ≥ and ≤ were set here for values at or beyond the usual limits of such assays; settings: source organism: Zaire ebolavirus
HLA-A*03:01 [2] = assay: as above; settings: source organism: Zaire ebolavirus
HLA-A*11:01 [3] = assay: as above; settings: source organism: Zaire ebolavirus
HLA-B*15:01 [4] = assay: as above; settings: source organism: Zaire ebolavirus
HLA-A*02:01 [5] = assay: IEDB peptide-MHC binding, purified MHC/competitive/fluorescence; filed as Kd, often an IC50 or EC50 that approximates it; ≥ and ≤ were set here for values at or beyond the usual limits of such assays; settings: source organism: Vibrio parahaemolyticus K5030
HLA-A*02:03 = assay: as above; settings: source organism: Vibrio parahaemolyticus K5030
HLA-A*02:11 = assay: as above; settings: source organism: Vibrio parahaemolyticus K5030
HLA-A*02:12 = assay: as above; settings: source organism: Vibrio parahaemolyticus K5030
HLA-A*02:19 = assay: as above; settings: source organism: Vibrio parahaemolyticus K5030
HLA-A*03:01 [6] = assay: as above; settings: source organism: Vibrio parahaemolyticus K5030
HLA-A*26:01 [7] = assay: as above; settings: source organism: Vibrio parahaemolyticus K5030
HLA-A*29:02 = assay: as above; settings: source organism: Vibrio parahaemolyticus K5030
HLA-B*15:01 [8] = assay: as above; settings: source organism: Vibrio parahaemolyticus K5030
HLA-B*18:01 = assay: as above; settings: source organism: Vibrio parahaemolyticus K5030
HLA-B*27:03 = assay: as above; settings: source organism: Vibrio parahaemolyticus K5030
HLA-B*39:01 = assay: as above; settings: source organism: Vibrio parahaemolyticus K5030
HLA-B*46:01 = assay: as above; settings: source organism: Vibrio parahaemolyticus K5030
HLA-B*51:01 = assay: as above; settings: source organism: Vibrio parahaemolyticus K5030
HLA-B*57:01 [9] = assay: as above; settings: source organism: Vibrio parahaemolyticus K5030
HLA-A*01:01 = assay: IEDB peptide-MHC binding, purified MHC/direct/fluorescence; filed as Kd, often an IC50 or EC50 that approximates it; ≥ and ≤ were set here for values at or beyond the usual limits of such assays; settings: source organism: Giardia lamblia ATCC 50803
HLA-A*02:01 [10] = assay: as above; settings: source organism: Giardia lamblia ATCC 50803
HLA-A*03:01 [11] = assay: as above; settings: source organism: Giardia lamblia ATCC 50803
HLA-A*11:01 [12] = assay: as above; settings: source organism: Giardia lamblia ATCC 50803
HLA-A*24:03 = assay: as above
HLA-A*26:01 [13] = assay: as above; settings: source organism: Giardia lamblia ATCC 50803
HLA-A*30:01 = assay: as above; settings: source organism: Giardia lamblia ATCC 50803
HLA-A*69:01 = assay: as above; settings: source organism: Giardia lamblia ATCC 50803
HLA-B*07:02 = assay: as above; settings: source organism: Giardia lamblia ATCC 50803
HLA-B*08:01 = assay: as above; settings: source organism: Giardia lamblia ATCC 50803
HLA-B*15:01 [14] = assay: as above; settings: source organism: Giardia lamblia ATCC 50803
HLA-B*27:05 = assay: as above; settings: source organism: Giardia lamblia ATCC 50803
HLA-B*40:01 = assay: as above; settings: source organism: Giardia lamblia ATCC 50803
HLA-B*44:02 = assay: as above; settings: source organism: Giardia lamblia ATCC 50803
HLA-B*58:01 = assay: as above
HLA-A*23:01 = assay: as above; settings: source organism: Orthohantavirus hantanense
HLA-A*31:01 = assay: as above; settings: source organism: Giardia lamblia ATCC 50803
HLA-B*15:17 = assay: as above; settings: source organism: Giardia lamblia ATCC 50803
HLA-B*35:01 = assay: as above; settings: source organism: Giardia lamblia ATCC 50803
HLA-C*15:02 = assay: as above
HLA-B*57:01 [15] = assay: as above; settings: source organism: Camelpox virus M-96
[16] = source organism: Giardia lamblia ATCC 50803

AALSSLAKH
pIC50 (HLA-A*02:01 [1]): ≤ 4.01 | pIC50 (HLA-A*03:01 [2]): ≤ 4.03 | pIC50 (HLA-A*11:01 [3]): 5.04 | pIC50 (HLA-B*15:01 [4]): ≤ 3.81

AGGWVLWKV
pKd (HLA-A*02:01 [5]): ≤ 4.70 | pKd (HLA-A*02:03): ≤ 4.70 | pKd (HLA-A*02:11): 8.82 | pKd (HLA-A*02:12): ≤ 4.70 | pKd (HLA-A*02:19): ≤ 4.70 | pKd (HLA-A*03:01 [6]): ≤ 4.70 | pKd (HLA-A*26:01 [7]): ≤ 4.70 | pKd (HLA-A*29:02): ≤ 4.70 | pKd (HLA-B*15:01 [8]): ≤ 4.70 | pKd (HLA-B*18:01): ≤ 4.70 | pKd (HLA-B*27:03): ≤ 4.70 | pKd (HLA-B*39:01): ≤ 4.70 | pKd (HLA-B*46:01): ≤ 4.70 | pKd (HLA-B*51:01): ≤ 4.70 | pKd (HLA-B*57:01 [9]): ≤ 4.70

AIPYFYKGK
pKd (HLA-A*01:01): ≤ 4.70 | pKd (HLA-A*02:01 [10]): ≤ 4.70 | pKd (HLA-A*03:01 [11]): ≤ 4.70 | pKd (HLA-A*11:01 [12]): 6.51 | pKd (HLA-A*24:03; [16]): 4.89 | pKd (HLA-A*26:01 [13]): ≤ 4.70 | pKd (HLA-A*30:01): 4.90 | pKd (HLA-A*69:01): ≤ 4.70 | pKd (HLA-B*07:02): ≤ 4.70 | pKd (HLA-B*08:01): ≤ 4.70 | pKd (HLA-B*15:01 [14]): ≤ 4.70 | pKd (HLA-B*27:05): ≤ 4.70 | pKd (HLA-B*40:01): ≤ 4.70 | pKd (HLA-B*44:02): ≤ 4.70 | pKd (HLA-B*58:01; [16]): ≤ 4.70

FFQNETQKY
pKd (HLA-A*23:01): 5.85 | pKd (HLA-A*24:03; source organism: Orthohantavirus hantanense): 5.89

ITASKDLCF
pKd (HLA-A*01:01): 5.06 | pKd (HLA-A*02:01 [10]): ≤ 4.70 | pKd (HLA-A*03:01 [11]): ≤ 4.70 | pKd (HLA-A*11:01 [12]): ≤ 4.70 | pKd (HLA-A*26:01 [13]): ≤ 4.70 | pKd (HLA-A*31:01): ≤ 4.70 | pKd (HLA-A*69:01): ≤ 4.70 | pKd (HLA-B*07:02): ≤ 4.70 | pKd (HLA-B*08:01): ≤ 4.70 | pKd (HLA-B*15:01 [14]): 6.52 | pKd (HLA-B*15:17): 8.55 | pKd (HLA-B*27:05): ≤ 4.70 | pKd (HLA-B*35:01): 6.44 | pKd (HLA-B*40:01): ≤ 4.70 | pKd (HLA-B*44:02): ≤ 4.70 | pKd (HLA-B*58:01; [16]): 6.36 | pKd (HLA-C*15:02; [16]): 5.41

KSLVQYIKF
pKd (HLA-B*57:01 [15]): 6.29 | pKd (HLA-B*58:01; source organism: Camelpox virus M-96): 7.20 | pKd (HLA-C*15:02; source organism: Vaccinia virus WR): ≤ 4.70

From the Immune Epitope Database (IEDB)
